In the series the test system is T1, GAF (GAGA-binding factor), His-GAF (Drosophila melanogaster), Q08605-2.
T1 sequence: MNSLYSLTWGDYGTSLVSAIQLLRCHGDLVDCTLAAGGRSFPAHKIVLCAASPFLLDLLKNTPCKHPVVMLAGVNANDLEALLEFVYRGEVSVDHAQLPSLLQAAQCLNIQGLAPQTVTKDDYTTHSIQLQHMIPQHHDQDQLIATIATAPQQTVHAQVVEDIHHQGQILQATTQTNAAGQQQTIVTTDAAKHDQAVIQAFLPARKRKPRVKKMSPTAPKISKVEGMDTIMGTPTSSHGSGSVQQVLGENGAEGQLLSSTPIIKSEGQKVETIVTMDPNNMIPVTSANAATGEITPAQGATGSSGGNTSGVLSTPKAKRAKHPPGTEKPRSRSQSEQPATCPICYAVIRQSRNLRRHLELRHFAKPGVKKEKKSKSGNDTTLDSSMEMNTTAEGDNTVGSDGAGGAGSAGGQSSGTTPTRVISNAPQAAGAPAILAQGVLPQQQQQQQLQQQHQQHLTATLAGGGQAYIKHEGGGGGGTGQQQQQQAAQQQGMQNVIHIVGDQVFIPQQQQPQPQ
The series is described as follows: EMSA. The following applies: GAF: band shift buffer of cited ref 25 (composition not given), poly(dI-dC) 10 ng, 4.5% acrylamide Tris/borate/EDTA gel; HSF: 10 ug extract protein, as in ref ….

“CTGTTCTCGTTGCTTCGAGAGAGCGCGCCTCGAATGTTCGCGAAAAGAGCGCCGGAGTATAAATAGAGGAGCTTCGTCGACGGAGAGTCAA (double strand) [hsp70Aa promoter PCR fragment]”: the binding result was “binds”.
